Like-named read-outs stand apart in the source and are kept apart here.
B1: fremanezumab from Teva (antibody, INN chains, looked up, V domains shown)
VH: EVQLVESGGGLVQPGGSLRLSCAASGFTFSNYWISWVRQAPGKGLEWVAEIRSESDASATHYAEAVKGRFTISRDNAKNSLYLQMNSLRAEDTAVYYCLAYFDYGLAIQNYWGQGTLVTVSS
VL: EIVLTQSPATLSLSPGERATLSCKASKRVTTYVSWYQQKPGQAPRLLIYGASNRYLGIPARFSGSGSGTDFTLTISSLEPEDFAVYYCSQSYNYPYTFGQGTKLEIK
B2: Fremanezumab Analogue (antibody, INN chains, looked up, V domains shown)
VH: B1 VH
VL: B1 VL
modifications: in-house analogue
B3: hu34 (antibody, V domains shown)
VH: QVQLVQSGAEVKKPGASVKVSCKASGYTFIDFNMHWVRQAPGQRLEWMGYIYPYNGDVVYNQNFTNRVTLTVDTSSSTAYMELSSLRSEDTAVYYCAREGLGGYWGQGTLVTVSS
VL: DIVLTQSPDSLAVSLGERATINCKASQNIDFDGYAYMNWYQHKPGQPPKVLIYSVFNLESGVPDRFSGSGSGTDFTLTISSLQAEDVAVYYCQQSHEVPYTFGQGTKLEIK
B4: Galcanezumab Analogue (antibody, INN chains, looked up, V domains shown)
VH: QVQLVQSGAEVKKPGSSVKVSCKASGYTFGNYWMQWVRQAPGQGLEWMGAIYEGTGKTVYIQKFADRVTITADKSTSTAYMELSSLRSEDTAVYYCARLSDYVSGFGYWGQGTTVTVSS
VL: DIQMTQSPSSLSASVGDRVTITCRASKDISKYLNWYQQKPGKAPKLLIYYTSGYHSGVPSRFSGSGSGTDFTLTISSLQPEDFATYYCQQGDALPPTFGGGTKVEIK
modifications: in-house analogue

Assays:
CGRP antigen [1] = assay: cell-based or functional assay
CGRP antigen [2] = assay: cell-based or functional assay; remark: listed apart in the source
CGRP antigen [3] = assay: cell-based or functional assay; remark: listed apart in the source
[4] = molecular target: synthetic human α-CGRP polypeptide (SEQ ID NO: 97)-NH2 (human); assay: BLI (Octet), antibody on AHC2, 50 nM CGRP; association pH 5.5, dissociation pH 5.5
[5] = molecular target: synthetic human α-CGRP polypeptide (SEQ ID NO: 97)-NH2 (human); assay: BLI (Octet), antibody on AHC2, 50 nM CGRP; association pH 7.4, dissociation pH 5.5
[6] = molecular target: synthetic human α-CGRP polypeptide (SEQ ID NO: 97)-NH2 (human); assay: BLI (Octet), antibody on AHC2, 50 nM CGRP; association pH 7.4, dissociation pH 7.4
Biotin-huCGRPaSA (human) = assay: ELISA, supernatant; relative to chimeric C245
Chain of Biotin-huCGRPaSA (human) (peptide, as listed by the source): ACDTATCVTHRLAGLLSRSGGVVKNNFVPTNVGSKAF

Chain of synthetic human α-CGRP polypeptide (SEQ ID NO: 97)-NH2 (human) (peptide, as listed by the source): as above

Row | Binder | IC50 (CGRP antigen [1]) [mg/L] | IC50 (CGRP antigen [2]) [mg/L] | Relative binding activity (%) vs Ref(Teva) (CGRP antigen [2]) [%] | IC50 (CGRP antigen [3]) [mg/L] | Binding signal (nm) [4] [nm] | koff [4] [s⁻¹] | Binding signal (nm) [5] [nm] | koff [5] [s⁻¹] | Binding signal (nm) [6] [nm] | koff [6] [s⁻¹] | Relative binding activity, % (Biotin-huCGRPaSA (human)) [%]
1 | B1 | 0.0613 | 0.0847 | 100 | 0.0563 |  |  |  |  |  |  | 
2 | B2 |  |  |  |  | 0.08 | 5.1e-05 | 0.1 | < 1e-05 | 0.12 | < 1e-05 | 
3 | B3 |  |  |  |  |  |  |  |  |  |  | 5
4 | B4 |  |  |  |  | 0.11 | 0.000251 | 0.12 | 0.00871 | 0.14 | 8.36e-05 | 

Source: patent US20260125454A1
